The test concerns the target ClpA (E. coli) (UniProt P0ABH9). Nature of the test: cell-based or functional assay.
Chain of UniProt P0ABH9 (P0ABH9 whole entry): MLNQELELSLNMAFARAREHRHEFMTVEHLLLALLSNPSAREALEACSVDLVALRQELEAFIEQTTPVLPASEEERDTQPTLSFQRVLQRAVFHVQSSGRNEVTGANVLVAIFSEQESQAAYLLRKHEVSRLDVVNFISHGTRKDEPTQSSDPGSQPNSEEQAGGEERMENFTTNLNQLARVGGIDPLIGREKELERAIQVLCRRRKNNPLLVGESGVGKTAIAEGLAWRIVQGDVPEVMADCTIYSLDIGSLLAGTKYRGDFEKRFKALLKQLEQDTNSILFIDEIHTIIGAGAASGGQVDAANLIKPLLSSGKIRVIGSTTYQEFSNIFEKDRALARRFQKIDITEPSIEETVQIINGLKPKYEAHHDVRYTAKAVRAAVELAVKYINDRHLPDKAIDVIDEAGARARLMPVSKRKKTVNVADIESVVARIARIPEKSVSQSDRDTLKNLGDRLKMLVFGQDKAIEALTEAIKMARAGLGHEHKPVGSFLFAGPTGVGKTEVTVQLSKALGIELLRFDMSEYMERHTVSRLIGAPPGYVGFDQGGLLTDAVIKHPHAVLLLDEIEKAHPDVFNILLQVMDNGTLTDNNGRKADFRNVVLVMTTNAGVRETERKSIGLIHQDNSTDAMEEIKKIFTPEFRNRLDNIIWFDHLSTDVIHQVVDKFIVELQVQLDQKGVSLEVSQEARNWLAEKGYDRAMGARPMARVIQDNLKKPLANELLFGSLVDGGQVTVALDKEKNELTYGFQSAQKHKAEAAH

Substance ClpS displayed an MDH activity (reactivation of heat-aggregated malate dehydrogenase), rate and yield of over 2 fold.
